Assay [1] addresses T1, human SIRP-α v1 (human, UniProt P78324 31-149).
T1 construct: also called Human v1; Human V1
Put plainly: SPR, antibody on GLC chip. The method, boiled down:
(§1)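 On a ProteOn XPR36 biosensor, Protein A-purified antibodies were amine-coupled to a GLC chip at about ~1000 RU after dilution to 80 nM in 10 mM sodium acetate pH 4.5. SIRP analytes at 100, 33, 11, 3.7, 1.2 and 0 nM were then injected one-shot in PBS pH 7.4 containing 0.01% Tween-20 at 25° C, with 90 s of association at 100 μL/min and 1200 s of dissociation. The dissociation constant (KD) was calculated as kd/ka from a global Langmuir fit of double-referenced data.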
(In general: SPR reads the build-up and loss of mass on a sensor chip optically.)

Assay [2] deals with T2, BALBc mouse SIRP-α (mouse (BALB/c strain)).
T2 chain: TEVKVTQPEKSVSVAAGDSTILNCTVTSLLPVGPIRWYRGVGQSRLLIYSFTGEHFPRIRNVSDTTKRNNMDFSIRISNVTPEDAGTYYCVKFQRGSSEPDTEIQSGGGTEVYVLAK
The assay can be described thus: SPR, antibody on GLC chip. The method, boiled down:
as §1

Assay [3] concerns the target T3, human SIRPγ isoform 1 (human, UniProt Q9P1W8 29-147).
T3 construct: also called Gamma; Human SIRPg
The assay can be described thus: SPR, antibody on GLC chip. The method, boiled down: as §1

The target in assay [4] is T4, human SIRP-α v2 (human).
T4 construct: also called Human v2; Human V2
Put plainly: SPR, antibody on GLC chip. A digest of the protocol: as §1

For assay [5], the target named is T5, NOD mouse SIRP-α (mouse (NOD strain)).
T5 chain: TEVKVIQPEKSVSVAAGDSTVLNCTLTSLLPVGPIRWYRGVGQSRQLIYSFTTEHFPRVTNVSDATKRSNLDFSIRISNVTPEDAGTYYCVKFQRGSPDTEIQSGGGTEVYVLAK
The assay can be described thus: SPR, antibody on GLC chip. A digest of the protocol: as §1

Assay [6] deals with T6, BL6 mouse SIRP-α (mouse (C57BL/6 strain), UniProt P97797 32-148).
T6 construct: also called C57BL/6
T6 sequence: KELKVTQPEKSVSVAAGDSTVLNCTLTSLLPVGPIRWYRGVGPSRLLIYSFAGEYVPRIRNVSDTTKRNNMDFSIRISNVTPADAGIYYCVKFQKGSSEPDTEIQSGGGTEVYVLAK
Put plainly: SPR, antibody on GLC chip. A digest of the protocol:
as §1

Assay [7] deals with T7, C57BL/6 mouse SIRP-α D1 domain (mouse (C57BL/6 strain), UniProt P97797 32-148).
T7 sequence: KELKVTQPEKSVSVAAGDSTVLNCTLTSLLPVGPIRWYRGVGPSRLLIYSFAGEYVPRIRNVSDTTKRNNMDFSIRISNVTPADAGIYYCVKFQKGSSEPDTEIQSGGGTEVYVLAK
The assay can be described thus: SPR, ProteOn, antibody on chip. The protocol:
(§2) All experiments were performed at 25° C. using a SPR-based ProteOn XPR36 biosensor (BioRad, Inc, Hercules, Calif.) equipped with GLC or NLC sensor chips. […] Purification was carried out by standard Protein A affinity column chromatography and eluted antibodies were stored in PBS buffer.
(§3) The running buffer was PBS pH 7.4 with 0.01% Tween-20 (PBST+). All analytes were used at their nominal concentrations as determined by A280 Absorbance and using their molar calculated extinction coefficient.
(§4) For the method using GLC chip, the analytes were injected and flowed over anti-SIRPα antibodies immobilized (˜1000 RUs) on GLC chips using Proteon™ Amine Coupling Kit. For the immobilization step, GLC chip was activated with EDAC/Sulpho-NHS 1:1 (Biorad) diluted 1/100 for 300 s at 25 μL/min. Anti-SIRPα antibodies were diluted to 80 nM concentration in 10 mM sodium acetate buffer pH 4.5 and immobilized to the chip at 30 μL/min for 50 s. Chip was inactivated with ethanolamine for 300 s at 25 μL/min. The analytes (e.g., SIRP-α from different species, SIRP-β, SIRP-γ) were injected in a “one-shot” kinetic mode at nominal concentrations of 100, 33, 11, 3.7, 1.2 and 0 nM. Association times were monitored for 90 s at 100 μL/min, and dissociation times were monitored for 1200 s. The surfaces were regenerated with a 2:1 v/v blend of Pierce IgG elution buffer/4M NaCl.

The target in assay [8] is T8, BALB/c mouse SIRP-α D1 domain (mouse (BALB/c strain)).
T8 chain: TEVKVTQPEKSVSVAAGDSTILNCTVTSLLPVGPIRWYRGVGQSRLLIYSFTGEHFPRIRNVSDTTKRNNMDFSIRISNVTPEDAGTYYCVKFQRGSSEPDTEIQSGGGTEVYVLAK
The assay can be described thus: SPR, ProteOn, antibody on chip. The protocol: as §2, §3, §4

Assay [9] has as its target T9, mouse 129 SIRP-α D1 domain (mouse (129 strain), UniProt P97797 32-150).
T9 construct: also called m129
T9 chain: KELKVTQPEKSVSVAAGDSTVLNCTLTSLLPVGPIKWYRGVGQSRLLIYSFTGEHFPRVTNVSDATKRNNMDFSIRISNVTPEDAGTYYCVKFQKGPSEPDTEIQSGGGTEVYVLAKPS
Put plainly: SPR, ProteOn, antibody on chip. The procedure: as §2, §4
(§5) Next, the binding kinetics of various antibody clones to selected mouse SIRP-α proteins were determined as described above. Mouse proteins that were tested include BALBc (SEQ ID NO:10), BL6 (SEQ ID NO:9), NOD (SEQ ID NO:8), and m129 (SEQ ID NO:7) SIRP-α proteins. Antibody clones labeled as “c” were tested as full-length mouse IgG2a antibodies; antibody clones labeled as “a” were tested as full-length human IgG1 antibodies with L234A, L235A, G237A, and N297A mutations.

For assay [10], the target named is T10, NOD mouse SIRP-α D1 domain (mouse (NOD strain)).
T10 chain: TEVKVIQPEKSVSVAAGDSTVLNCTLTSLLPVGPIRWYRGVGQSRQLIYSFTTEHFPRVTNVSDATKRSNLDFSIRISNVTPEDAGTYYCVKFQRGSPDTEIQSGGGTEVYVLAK
The assay can be described thus: SPR, ProteOn, antibody on chip. The procedure:
as §2, §4, §5

T4 sequence (chain, as listed by the source limits assumed): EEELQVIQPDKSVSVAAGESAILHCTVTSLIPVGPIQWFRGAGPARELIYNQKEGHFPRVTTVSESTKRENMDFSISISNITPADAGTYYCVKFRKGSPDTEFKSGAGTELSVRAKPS
T1 sequence (P78324 31-149 limits assumed): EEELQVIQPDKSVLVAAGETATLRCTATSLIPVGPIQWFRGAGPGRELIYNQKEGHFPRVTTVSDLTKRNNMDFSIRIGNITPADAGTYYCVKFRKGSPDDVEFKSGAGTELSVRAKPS
T3 sequence (Q9P1W8 29-147 limits assumed): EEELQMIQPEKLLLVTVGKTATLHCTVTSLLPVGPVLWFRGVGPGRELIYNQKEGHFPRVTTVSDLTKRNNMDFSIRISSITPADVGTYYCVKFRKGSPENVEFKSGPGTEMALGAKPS

B1: antibody 136 variant, light chain Mut / heavy chain wt (antibody, V domains shown)
VH: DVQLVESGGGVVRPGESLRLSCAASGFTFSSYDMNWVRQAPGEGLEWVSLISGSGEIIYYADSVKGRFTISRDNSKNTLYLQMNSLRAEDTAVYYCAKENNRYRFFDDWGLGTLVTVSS
VL: EIVLTQSPGTLSLSPGERATLSCRASQSVYTYLAWYQQKPGQAPRLLIYGASSRATGIPDRFSGSGSGTEFTLTISSLQSEDFAVYYCQQYYDRPPLTFGGGTKVEIK
For orientation: Kd means the constant that tells how readily two partners part at equilibrium. High values mean weaker binding, low ones tighter binding. Regarding B1, the Kd in [1] was 7.28 nM; in assay [2], 2.8 nM; in assay [3] it was 19.6 nM; in [4], 17.4 nM; in assay [5], 4.12 nM; in assay [6] it was 32.6 nM.

B2: antibody 136 variant, light chain Mut / heavy chain Mut (antibody, V domains shown)
VH: EVQLVESGGGVVQPGRSLRLSCAASGFTFSSYDVNWVRQAPGKGLEWVSLISGSGEIIYYADSVKGRFTISRDNSKNTLYLQMNSLRAEDTAVYYCAKENNRYRFFDDWGQGTLVTVSS
VL: EIVLTQSPGTLSLSPGERATLSCRASQSVYTYLAWYQQKPGQAPRLLIYGASSRATGIPDRFSGSGSGTEFTLTISSLQSEDFAVYYCQQYYDRPPLTFGGGTKVEIK
As to B2, the Kd came to 7.29 nM in [1]; 3.14 nM in assay [2]; 1.68 nM in assay [3]; 19.5 nM in assay [4]; 5.21 nM in assay [5]; 31.7 nM in [6].

B3: antibody 136 variant, light chain Mut_S12T / heavy chain Mut (antibody, V domains shown)
VH: EVQLVESGGGVVQPGRSLRLSCAASGFTFSSYDVNWVRQAPGKGLEWVSLISGSGEIIYYADSVKGRFTISRDNSKNTLYLQMNSLRAEDTAVYYCAKENNRYRFFDDWGQGTLVTVSS
VL: EIVLTQSPGTLTLSPGERATLSCRASQSVYTYLAWYQQKPGQAPRLLIYGASSRATGIPDRFSGSGSGTEFTLTISSLQSEDFAVYYCQQYYDRPPLTFGGGTKVEIK
For B3, the dissociation constant (Kd) in assay [1] was found to be 4.88 nM; in assay [2], 2.09 nM; in [3], 66.7 nM; in [4], 10.5 nM; in assay [5], 2.85 nM; in assay [6], 16.3 nM.

B4: antibody 136 variant, light chain Mut_Q38E / heavy chain Mut (antibody, V domains shown)
VH: EVQLVESGGGVVQPGRSLRLSCAASGFTFSSYDVNWVRQAPGKGLEWVSLISGSGEIIYYADSVKGRFTISRDNSKNTLYLQMNSLRAEDTAVYYCAKENNRYRFFDDWGQGTLVTVSS
VL: EIVLTQSPGTLSLSPGERATLSCRASQSVYTYLAWYQEKPGQAPRLLIYGASSRATGIPDRFSGSGSGTEFTLTISSLQSEDFAVYYCQQYYDRPPLTFGGGTKVEIK
Regarding B4, the Kd in assay [1] was determined as 6.18 nM; in assay [2], 2.98 nM; in assay [3] it was 19.3 nM; in [4], 12.5 nM; in assay [5], 5.98 nM; in [6] it was 33.1 nM.

B5: antibody 136 variant, light chain Mut_S22T / heavy chain Mut (antibody, V domains shown)
VH: EVQLVESGGGVVQPGRSLRLSCAASGFTFSSYDVNWVRQAPGKGLEWVSLISGSGEIIYYADSVKGRFTISRDNSKNTLYLQMNSLRAEDTAVYYCAKENNRYRFFDDWGQGTLVTVSS
VL: EIVLTQSPGTLSLSPGERATLTCRASQSVYTYLAWYQQKPGQAPRLLIYGASSRATGIPDRFSGSGSGTEFTLTISSLQSEDFAVYYCQQYYDRPPLTFGGGTKVEIK
In the case of B5, the dissociation constant Kd in [1] turned out to be 4.99 nM; in assay [2] it was 1.64 nM; in assay [3], 61.7 nM; in assay [4], 8.28 nM; in assay [5], 2.44 nM; in assay [6], 13.3 nM.

B6: AB27c (antibody, mouse IgG2a, V domains shown)
VH: DVQLVESGGGVVRPGESLRLSCAVSGFRFSSYAMSWVRQAPGKGLEWVSGISSGGDTYYVDSVKGRFTISRDNSKNTLYLQVNSLTAEDTAIYYCARETWNHLFDYWGLGTLVTVSS
VL: ALTQPASVSADLGETVKITCSGGDSSSHYYGWYQQKSPGSAPVTVIYSDDERPSDIPSRFSGSASGSTATLTITGVRVEDEAIYYCGAYDGSTYANTFGAGTTLTVL
notes: Full-length mouse IgG2a
A word on the koff: it is a measure of how fast the partners let go of each other. For orientation: kon means a measure of how fast the partners come together. Consider B6, for which the equilibrium dissociation constant (Kd) was found to be 9.49 nM in [7], 15 nM in assay [8], 0.487 nM in [9] and 3.42 nM in [10]. The off-rate constant (koff) in assay [7] came to 0.0014 s⁻¹; in assay [8], 0.00226 s⁻¹; in assay [9] it was 0.000101 s⁻¹; in assay [10], 0.00101 s⁻¹. Besides, the kon in assay [7] was 147000 M⁻¹ s⁻¹; in assay [8] it was 150000 M⁻¹ s⁻¹; in [9], 207000 M⁻¹ s⁻¹; in assay [10] it was 296000 M⁻¹ s⁻¹.

B7: AB66c (antibody, mouse IgG2a, V domains shown)
VH: DVQLVESGGGVVRPGESLRLSCAASGFTFSSYAMSWVRQAPGKGLEWLAGISAGGSDTYYIDSVKGRFTISRDNPKNSLYLQMSSLTAEDTAVYYCARETWNHLFDYWGLGTLVTVSS
VL: ALTQPASVSANPGETVKITCSGGDYYSTYYAWYQQKSPGSAPVTVIHSDDKRPSDIPSRFSGSASGSAATLIITGVRVEDEAVYYCGGYDGRTYINTFGAGTTLTVL
notes: Full-length mouse IgG2a
As for B7, the equilibrium dissociation constant (Kd) in assay [7] came to 5.8 nM; in [8] it was 3.41 nM; in assay [9], 0.0955 nM; in [10] it was 0.564 nM. Also, the koff in assay [7] is 0.000619 s⁻¹; in [8], 0.000762 s⁻¹; in assay [9] it was 1.98e-05 s⁻¹; in assay [10] it was 0.000232 s⁻¹. Moreover, the on-rate (kon) was 107000 M⁻¹ s⁻¹ in assay [7], 224000 M⁻¹ s⁻¹ in [8], 207000 M⁻¹ s⁻¹ in assay [9] and 412000 M⁻¹ s⁻¹ in [10].

B8: AB25c (antibody, mouse IgG2a, V domains shown)
VH: DVQLVESGGGVVRPGESLRLSCEASGFTFSSNAMSWVRQAPGKGLEWVAGISSGSDTYYGDSVKGRLTISRDNSKNILYLQMNSLTAEDTAVYYCARETWNHLFDYWGLGTLVTVSS
VL: ALTQPASVSANPGETVEITCSGGSYSSYYYAWYQQKSPGSAPVTLIYSDDKRPSNIPSRFSGSASGSTATLTITGVRAEDEAVYFCGGYDQSSYTNPFGAGTTLTVL
notes: Full-length mouse IgG2a
Consider B8, for which the dissociation constant (Kd) in assay [7] worked out at 2.81 nM; in assay [8], 9.64 nM; in [9], 0.0587 nM; in assay [10], 3.9 nM. The dissociation rate constant (koff) came to 0.000399 s⁻¹ in [7], 0.00292 s⁻¹ in [8], 2.07e-05 s⁻¹ in [9] and 0.00143 s⁻¹ in [10]. Further, the kon in assay [7] is 142000 M⁻¹ s⁻¹; in [8] it was 303000 M⁻¹ s⁻¹; in [9], 352000 M⁻¹ s⁻¹; in assay [10], 366000 M⁻¹ s⁻¹.

Values taken from patent US20210363269A1 (ALX ONCOLOGY, published 2021).
